Data from article PMC9482650, “Quantitative fragmentomics allow affinity mapping of interactomes” (Nature Communications, 2022).

Columns and labels:
Assay in all cases: holdup assay
Parameters in all cases: key: below the threshold = too weak to quantify, mostly under pKd 3.1 to 4
RIMS2, Q9UQ26 = biological target: RIMS2, Q9UQ26
CNKSR3, Q6P9H4 = biological target: CNKSR3, Q6P9H4
NHERF2_1, Q15599 = biological target: NHERF2_1, Q15599
MAGI3_3, Q5TCQ9 = biological target: MAGI3_3, Q5TCQ9
SHANK3, Q9BYB0 = biological target: T1, SHANK3, Q9BYB0
T1 sequence (Q9BYB0 641-750, limits assumed, looked up): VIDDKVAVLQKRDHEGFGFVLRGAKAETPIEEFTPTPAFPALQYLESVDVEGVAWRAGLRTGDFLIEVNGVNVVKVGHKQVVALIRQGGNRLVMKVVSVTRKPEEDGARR

LMO7, Q8WWI1 = biological target: LMO7, Q8WWI1
Sequence of LMO7, Q8WWI1 (Q8WWI1 1037-1138): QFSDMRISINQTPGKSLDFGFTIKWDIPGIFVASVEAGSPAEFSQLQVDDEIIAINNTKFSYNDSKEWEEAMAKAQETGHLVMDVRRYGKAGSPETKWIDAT

SYNPO2L, Q9H987 = biological target: T2, SYNPO2L, Q9H987
T2 sequence (Q9H987 1-98, limits assumed, looked up): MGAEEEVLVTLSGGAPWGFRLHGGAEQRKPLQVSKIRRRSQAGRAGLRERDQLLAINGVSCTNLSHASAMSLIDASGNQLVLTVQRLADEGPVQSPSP

GIPC1, O14908 = biological target: T3, GIPC1, O14908
T3 sequence (O14908 128-223, limits assumed, looked up): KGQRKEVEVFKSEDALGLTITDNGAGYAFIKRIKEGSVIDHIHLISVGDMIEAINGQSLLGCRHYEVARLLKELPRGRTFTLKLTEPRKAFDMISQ

GRIP2_2, Q9C0E4 = biological target: GRIP2_2, Q9C0E4
Sequence of GRIP2_2, Q9C0E4 (Q9C0E4 137-245): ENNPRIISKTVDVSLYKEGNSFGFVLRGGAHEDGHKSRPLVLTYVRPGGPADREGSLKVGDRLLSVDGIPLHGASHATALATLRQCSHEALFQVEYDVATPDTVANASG

CARD14, Q9BXL6 = biological target: CARD14, Q9BXL6
Sequence of CARD14, Q9BXL6 (Q9BXL6 558-663): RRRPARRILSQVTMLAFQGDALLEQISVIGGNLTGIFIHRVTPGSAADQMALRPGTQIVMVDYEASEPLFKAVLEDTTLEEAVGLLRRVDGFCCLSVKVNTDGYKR

PARD6G, Q9BYG4 = biological target: T4, PARD6G, Q9BYG4
T4 sequence (Q9BYG4 153-261, limits assumed, looked up): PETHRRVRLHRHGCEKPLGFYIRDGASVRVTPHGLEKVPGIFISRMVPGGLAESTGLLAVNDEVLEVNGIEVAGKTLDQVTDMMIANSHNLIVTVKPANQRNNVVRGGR

DLG2_1, Q15700 = biological target: DLG2_1, Q15700
MAST3, O60307 = biological target: MAST3, O60307
Sequence of MAST3, O60307 (O60307 945-1048): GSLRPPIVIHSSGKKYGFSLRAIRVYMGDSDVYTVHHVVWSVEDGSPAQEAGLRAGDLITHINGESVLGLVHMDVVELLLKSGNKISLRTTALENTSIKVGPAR

NHERF1_2, O14745 = biological target: T5, NHERF1_2, O14745
T5 sequence (O14745 149-244, limits assumed, looked up): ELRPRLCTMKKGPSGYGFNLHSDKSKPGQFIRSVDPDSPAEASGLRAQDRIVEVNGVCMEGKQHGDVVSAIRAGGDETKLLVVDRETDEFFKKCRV

MPDZ_7, O75970 = biological target: T6, MPDZ_7, O75970
T6 sequence (O75970 1146-1253, limits assumed, looked up): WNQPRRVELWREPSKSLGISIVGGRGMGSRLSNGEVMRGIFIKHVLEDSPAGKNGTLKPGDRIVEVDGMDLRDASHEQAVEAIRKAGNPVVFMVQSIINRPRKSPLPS

PREX2_2, Q70Z35 = biological target: T7, PREX2_2, Q70Z35
T7 sequence (Q70Z35 672-764, limits assumed, looked up): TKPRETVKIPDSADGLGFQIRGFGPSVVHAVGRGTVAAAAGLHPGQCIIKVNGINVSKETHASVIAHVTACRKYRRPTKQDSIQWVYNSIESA

MLLT4, P55196 = biological target: T8, MLLT4, P55196
T8 sequence (P55196 1002-1103, limits assumed, looked up): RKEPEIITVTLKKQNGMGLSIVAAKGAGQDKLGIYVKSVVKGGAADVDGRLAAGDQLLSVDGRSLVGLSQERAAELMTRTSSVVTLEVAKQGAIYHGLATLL

PDLIM3, Q53GG5 = biological target: T9, PDLIM3, Q53GG5
T9 sequence (Q53GG5 1-94, limits assumed, looked up): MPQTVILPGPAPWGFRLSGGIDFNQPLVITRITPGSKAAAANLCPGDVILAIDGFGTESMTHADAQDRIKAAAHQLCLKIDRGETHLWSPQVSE

PTPN4, P29074 = biological target: T10, PTPN4, P29074
T10 sequence (P29074 512-599, limits assumed, looked up): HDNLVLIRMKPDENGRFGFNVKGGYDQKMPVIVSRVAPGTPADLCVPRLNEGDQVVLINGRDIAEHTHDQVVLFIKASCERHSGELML

MPDZ_13, O75970 = biological target: T11, MPDZ_13, O75970
T11 sequence (O75970 1982-2070, limits assumed, looked up): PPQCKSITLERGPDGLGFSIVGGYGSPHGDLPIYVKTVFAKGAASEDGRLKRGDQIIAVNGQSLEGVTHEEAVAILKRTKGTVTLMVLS

SHROOM2, Q13796 = biological target: T12, SHROOM2, Q13796
T12 sequence (Q13796 21-118, limits assumed, looked up): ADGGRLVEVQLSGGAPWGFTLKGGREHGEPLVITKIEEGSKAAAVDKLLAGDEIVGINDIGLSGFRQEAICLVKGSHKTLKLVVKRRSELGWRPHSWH

MPDZ_2, O75970 = biological target: T13, MPDZ_2, O75970
T13 sequence (O75970 252-347, limits assumed, looked up): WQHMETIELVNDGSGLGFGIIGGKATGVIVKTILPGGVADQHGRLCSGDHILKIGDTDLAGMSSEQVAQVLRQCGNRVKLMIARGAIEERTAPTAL

Q9P227 = settings: plain residues with an end cap or a label only (N-terminal biotin on a linker: ttds)
O60759 = settings: plain residues with an end cap or a label only (N-terminal biotin on a linker: ttds)
[1] = plain residues with an end cap or a label only (N-terminal biotin on a linker: ttds)
[2] = plain residues with an end cap or a label only (N-terminal biotin on a linker: none)

Sequence of CNKSR3, Q6P9H4 (Q6P9H4 203-303): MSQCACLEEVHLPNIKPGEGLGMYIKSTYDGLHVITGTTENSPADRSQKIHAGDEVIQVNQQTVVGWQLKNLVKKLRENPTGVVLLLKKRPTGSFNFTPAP
Sequence of NHERF2_1, Q15599 (Q15599 9-91): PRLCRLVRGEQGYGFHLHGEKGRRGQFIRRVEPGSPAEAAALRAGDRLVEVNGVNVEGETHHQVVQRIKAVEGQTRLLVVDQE
Sequence of RIMS2, Q9UQ26 (Q9UQ26 637-758): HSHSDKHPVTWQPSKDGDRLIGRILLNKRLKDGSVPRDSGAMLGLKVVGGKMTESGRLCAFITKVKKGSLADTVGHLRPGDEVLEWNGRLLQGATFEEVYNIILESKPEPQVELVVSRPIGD
Sequence of MAGI3_3, Q5TCQ9 (Q5TCQ9 572-655): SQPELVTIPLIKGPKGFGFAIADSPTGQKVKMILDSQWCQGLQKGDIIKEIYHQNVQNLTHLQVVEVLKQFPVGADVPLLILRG

## SGSRPSATVV [HPV73-E6, Q82005]
RIMS2, Q9UQ26; [1]
  pKd: below the threshold
CNKSR3, Q6P9H4; [1]
  pKd: below the threshold
NHERF2_1, Q15599; [1]
  pKd: below the threshold
MAGI3_3, Q5TCQ9; [1]
  pKd: below the threshold
SHANK3, Q9BYB0; [1]
  pKd: below the threshold
LMO7, Q8WWI1; [1]
  pKd: below the threshold
SYNPO2L, Q9H987; [1]
  pKd: below the threshold
GIPC1, O14908; [1]
  pKd: 4.64
GRIP2_2, Q9C0E4; [1]
  pKd: below the threshold
CARD14, Q9BXL6; [1]
  pKd: 4.12
PARD6G, Q9BYG4; [1]
  pKd: below the threshold
DLG2_1, Q15700; [1]
  pKd: below the threshold
MAST3, O60307; [1]
  pKd: below the threshold
NHERF1_2, O14745; [1]
  pKd: below the threshold
MPDZ_7, O75970; [1]
  pKd: below the threshold
PREX2_2, Q70Z35; [1]
  pKd: below the threshold
MLLT4, P55196; [1]
  pKd: below the threshold
PDLIM3, Q53GG5; [1]
  pKd: below the threshold
PTPN4, P29074; [1]
  pKd: 4.65
MPDZ_13, O75970; [1]
  pKd: below the threshold
SHROOM2, Q13796; [1]
  pKd: below the threshold

## RLQRRRETQV [HPV18-E6, P06463]
RIMS2, Q9UQ26; [1]
  pKd: below the threshold
CNKSR3, Q6P9H4; [1]
  pKd: 4.1
NHERF2_1, Q15599; [1]
  pKd: below the threshold
MAGI3_3, Q5TCQ9; [1]
  pKd: below the threshold
SHANK3, Q9BYB0; [1]
  pKd: below the threshold
LMO7, Q8WWI1; [1]
  pKd: below the threshold
SYNPO2L, Q9H987; [1]
  pKd: below the threshold
GIPC1, O14908; [1]
  pKd: 4.44
GRIP2_2, Q9C0E4; [1]
  pKd: 4.48
CARD14, Q9BXL6; [1]
  pKd: below the threshold
PARD6G, Q9BYG4; [1]
  pKd: below the threshold
DLG2_1, Q15700; [1]
  pKd: 5.11
MAST3, O60307; [1]
  pKd: below the threshold
NHERF1_2, O14745; [1]
  pKd: below the threshold
MPDZ_7, O75970; [1]
  pKd: below the threshold
PREX2_2, Q70Z35; [1]
  pKd: 4
MLLT4, P55196; [1]
  pKd: below the threshold
PDLIM3, Q53GG5; [1]
  pKd: below the threshold
PTPN4, P29074; [1]
  pKd: 4.62
MPDZ_13, O75970; [1]
  pKd: below the threshold
SHROOM2, Q13796; [1]
  pKd: below the threshold
MPDZ_2, O75970; [1]
  pKd: below the threshold

## SKPTRRETEV [HPV35-E6, P27228]
RIMS2, Q9UQ26; [1]
  pKd: below the threshold
CNKSR3, Q6P9H4; [1]
  pKd: 3.57
NHERF2_1, Q15599; [1]
  pKd: 3.77
SHANK3, Q9BYB0; [1]
  pKd: below the threshold
SYNPO2L, Q9H987; [1]
  pKd: below the threshold
GIPC1, O14908; [1]
  pKd: 4.69
PARD6G, Q9BYG4; [1]
  pKd: below the threshold
DLG2_1, Q15700; [1]
  pKd: 4.91
MAST3, O60307; [1]
  pKd: below the threshold
NHERF1_2, O14745; [1]
  pKd: below the threshold
MPDZ_7, O75970; [1]
  pKd: below the threshold
PREX2_2, Q70Z35; [1]
  pKd: 3.62
MLLT4, P55196; [1]
  pKd: 3.79
PDLIM3, Q53GG5; [1]
  pKd: below the threshold
PTPN4, P29074; [1]
  pKd: 4.03
MPDZ_13, O75970; [1]
  pKd: 3.77
SHROOM2, Q13796; [1]
  pKd: below the threshold
MPDZ_2, O75970; [1]
  pKd: below the threshold

## RLPKIKETTV [FRMPD4, Q14CM0]
RIMS2, Q9UQ26; [1]
  pKd: below the threshold
CNKSR3, Q6P9H4; [1]
  pKd: 4.24
NHERF2_1, Q15599; [1]
  pKd: below the threshold
MAGI3_3, Q5TCQ9; [1]
  pKd: below the threshold
SHANK3, Q9BYB0; [1]
  pKd: below the threshold
LMO7, Q8WWI1; [1]
  pKd: 4.45
SYNPO2L, Q9H987; [1]
  pKd: below the threshold
GIPC1, O14908; [1]
  pKd: 4.44
GRIP2_2, Q9C0E4; [1]
  pKd: below the threshold
CARD14, Q9BXL6; [1]
  pKd: below the threshold
Q9P227
  pKd: below the threshold
PARD6G, Q9BYG4; [1]
  pKd: below the threshold
DLG2_1, Q15700; [1]
  pKd: 5.32
MAST3, O60307; [1]
  pKd: below the threshold
NHERF1_2, O14745; [1]
  pKd: below the threshold
MPDZ_7, O75970; [1]
  pKd: below the threshold
O60759
  pKd: below the threshold
PREX2_2, Q70Z35; [1]
  pKd: 4.25
MLLT4, P55196; [1]
  pKd: below the threshold
PDLIM3, Q53GG5; [1]
  pKd: 4.24
PTPN4, P29074; [1]
  pKd: 5.14
MPDZ_13, O75970; [1]
  pKd: below the threshold
SHROOM2, Q13796; [1]
  pKd: below the threshold
MPDZ_2, O75970; [1]
  pKd: below the threshold

## RPLPRKVSQL [DOCK4, Q8N1I0]
RIMS2, Q9UQ26; [1]
  pKd: below the threshold
CNKSR3, Q6P9H4; [1]
  pKd: below the threshold
NHERF2_1, Q15599; [1]
  pKd: below the threshold
MAGI3_3, Q5TCQ9; [1]
  pKd: below the threshold
SHANK3, Q9BYB0; [1]
  pKd: below the threshold
LMO7, Q8WWI1; [1]
  pKd: below the threshold
SYNPO2L, Q9H987; [1]
  pKd: below the threshold
GIPC1, O14908; [1]
  pKd: below the threshold
GRIP2_2, Q9C0E4; [1]
  pKd: 4.25
CARD14, Q9BXL6; [1]
  pKd: below the threshold
Q9P227
  pKd: below the threshold
PARD6G, Q9BYG4; [1]
  pKd: below the threshold
DLG2_1, Q15700; [1]
  pKd: below the threshold
MAST3, O60307; [1]
  pKd: below the threshold
NHERF1_2, O14745; [1]
  pKd: 4.45
MPDZ_7, O75970; [1]
  pKd: below the threshold
O60759
  pKd: below the threshold
PREX2_2, Q70Z35; [1]
  pKd: below the threshold
MLLT4, P55196; [1]
  pKd: below the threshold
PDLIM3, Q53GG5; [1]
  pKd: below the threshold
PTPN4, P29074; [1]
  pKd: below the threshold
MPDZ_13, O75970; [1]
  pKd: below the threshold
SHROOM2, Q13796; [1]
  pKd: below the threshold
MPDZ_2, O75970; [1]
  pKd: below the threshold

## NLNSSRVPDLLV [SARS-CoV2-E, P0DTC4]
RIMS2, Q9UQ26; [2]
  pKd: below the threshold
CNKSR3, Q6P9H4; [2]
  pKd: below the threshold
NHERF2_1, Q15599; [2]
  pKd: below the threshold
MAGI3_3, Q5TCQ9; [2]
  pKd: below the threshold
SHANK3, Q9BYB0; [2]
  pKd: 3.83
LMO7, Q8WWI1; [2]
  pKd: below the threshold
SYNPO2L, Q9H987; [2]
  pKd: below the threshold
GIPC1, O14908; [2]
  pKd: below the threshold
GRIP2_2, Q9C0E4; [2]
  pKd: below the threshold
CARD14, Q9BXL6; [2]
  pKd: below the threshold
PARD6G, Q9BYG4; [2]
  pKd: below the threshold
DLG2_1, Q15700; [2]
  pKd: below the threshold
MAST3, O60307; [2]
  pKd: below the threshold
NHERF1_2, O14745; [2]
  pKd: 4.76
MPDZ_7, O75970; [2]
  pKd: below the threshold
PREX2_2, Q70Z35; [2]
  pKd: below the threshold
MLLT4, P55196; [2]
  pKd: 4.1
PDLIM3, Q53GG5; [2]
  pKd: below the threshold
PTPN4, P29074; [2]
  pKd: below the threshold
MPDZ_13, O75970; [2]
  pKd: below the threshold
SHROOM2, Q13796; [2]
  pKd: below the threshold
MPDZ_2, O75970; [2]
  pKd: below the threshold
